{
  "source": "paper PMC10877974",
  "key": {"[1]": {"molecular_target": "Ad35K++ (recombinant adenovirus serotype 35 fiber knob protein with affinity-enhancing mutations) (adenovirus serotype 35)", "experiment": "SEC; Superdex 200 Increase 10/300 GL, 1x Tris-buffered saline, 1 mL/min; cGMP grade Ad35K++"}, "[2]": {"molecular_target": "Ad35K++ (recombinant adenovirus serotype 35 fiber knob protein with affinity-enhancing mutations) (adenovirus serotype 35)", "experiment": "SDS-PAGE of unboiled sample; reduced 4-15% gradient gel, Laemmli sample buffer with beta-mercaptoethanol, sample not boiled, Coomassie Blue"}},
  "data": [
    {"substance": "Ad35K++ (recombinant adenovirus serotype 35 fiber knob protein with affinity-enhancing mutations) (domain or fragment)", "values": [
      {"measurement": "stoichiometry N", "setting": "[1]", "value": 3},
      {"measurement": "stoichiometry N", "setting": "[2]", "value": 3}
    ]}
  ]
}
